Patent US20230138315A1 (JIANGSU HENGRUI MEDICINE, published 2023)

T1: human-ANGPTL3 (R&D, 3829-AN) (human, UniProt Q9Y5C1 17-460)
T1 construct: Bought antigen used in the Biacore assay
T1 sequence (looked up): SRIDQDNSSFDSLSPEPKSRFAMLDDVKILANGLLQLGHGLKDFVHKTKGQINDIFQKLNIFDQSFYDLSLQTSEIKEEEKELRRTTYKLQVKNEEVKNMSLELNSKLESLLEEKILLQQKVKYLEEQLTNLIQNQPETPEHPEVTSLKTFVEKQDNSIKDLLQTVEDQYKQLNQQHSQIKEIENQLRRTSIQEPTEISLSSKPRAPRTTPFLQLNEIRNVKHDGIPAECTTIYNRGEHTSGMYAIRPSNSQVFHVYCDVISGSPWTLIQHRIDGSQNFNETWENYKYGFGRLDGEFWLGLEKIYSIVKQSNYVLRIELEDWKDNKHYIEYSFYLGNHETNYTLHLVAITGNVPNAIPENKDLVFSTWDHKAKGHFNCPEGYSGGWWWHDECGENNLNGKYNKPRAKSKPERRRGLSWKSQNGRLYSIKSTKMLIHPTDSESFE

T2: rat ANGPTL3(17-455)-His (rat, biotin-labelled in the ELISA and HTRF assays (sites not given))
T2 construct: also called full-length rat ANGPTL3
T2 chain: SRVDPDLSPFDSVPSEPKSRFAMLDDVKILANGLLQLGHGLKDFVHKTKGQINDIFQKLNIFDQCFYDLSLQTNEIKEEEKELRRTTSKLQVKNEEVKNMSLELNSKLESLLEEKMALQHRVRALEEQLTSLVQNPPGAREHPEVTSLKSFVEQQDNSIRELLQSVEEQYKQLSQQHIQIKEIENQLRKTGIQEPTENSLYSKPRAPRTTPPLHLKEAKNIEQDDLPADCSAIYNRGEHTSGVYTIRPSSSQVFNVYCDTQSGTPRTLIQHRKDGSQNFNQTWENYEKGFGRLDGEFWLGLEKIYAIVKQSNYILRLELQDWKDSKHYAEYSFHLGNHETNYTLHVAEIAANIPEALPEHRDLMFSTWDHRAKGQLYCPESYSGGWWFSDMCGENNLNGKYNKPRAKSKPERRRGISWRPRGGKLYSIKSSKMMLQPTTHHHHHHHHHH

T3: mouse ANGPTL3(17-455)-His (mouse, UniProt Q9R182 17-455, biotin-labelled in the ELISA and HTRF assays (sites not given))
T3 construct: also called full-length mouse ANGPTL3
T3 sequence: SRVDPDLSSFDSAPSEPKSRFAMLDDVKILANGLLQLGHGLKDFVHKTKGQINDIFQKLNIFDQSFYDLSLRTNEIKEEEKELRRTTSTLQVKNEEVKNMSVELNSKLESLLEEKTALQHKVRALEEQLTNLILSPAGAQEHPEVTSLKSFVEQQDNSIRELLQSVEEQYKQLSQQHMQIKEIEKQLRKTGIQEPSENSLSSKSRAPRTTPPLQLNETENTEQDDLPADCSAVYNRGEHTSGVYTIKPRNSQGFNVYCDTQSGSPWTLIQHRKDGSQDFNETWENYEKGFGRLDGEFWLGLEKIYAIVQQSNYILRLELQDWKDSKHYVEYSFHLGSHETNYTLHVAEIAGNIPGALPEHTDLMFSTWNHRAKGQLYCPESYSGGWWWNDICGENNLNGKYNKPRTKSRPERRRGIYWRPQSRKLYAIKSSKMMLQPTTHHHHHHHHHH


Experiments:
[1] = biological target: T1, human-ANGPTL3 (R&D, 3829-AN); assay: SPR (Biacore T200); antibody captured on Protein A chip, antigen in flow; 1:1 Langmuir fit
Description: (§1) Biacore was used to determine the affinity of the test anti-ANGPTL3 antibodies for human, monkey, rat and mouse ANGPTL3, and the method is as follows:
(§2) Reaction signals were detected in real time using a Biacore T200 instrument to obtain association and dissociation curves. After each cycle of dissociation was completed, the biochip was washed and regenerated using a glycine-hydrochloric acid regeneration solution (Cat. # BR-1003-54, GE, pH 1.5). The running buffer for the experiment was 1×HBS-EP buffer (Cat. # BR-1001-88, GE). The data obtained from the experiment were fitted with the (1:1) Langmuir model using GE Biacore T200 evaluation software (version 3.0) to obtain affinity values.

[2] = biological target: T2, rat ANGPTL3(17-455)-His; assay: as above
Description: as §1, §2

[3] = biological target: T3, mouse ANGPTL3(17-455)-His; assay: ELISA; biotin-labelled antigen on streptavidin-coated plate
Method: (§3) An anti-ANGPTL3 antibody inhibited or interfered with at least one activity of an ANGPTL3 protein by binding to the ANGPTL3 protein. The binding activity of the anti-ANGPTL3 antibody to the ANGPTL3 antigen was tested by an ELISA assay. The ANGPTL3 protein (human ANGPTL3(17-170)-mFc) was immobilized on a 96-well microplate by binding to the goat anti-mouse IgG coated on the microplate, and the binding activity of the antibody to the ANGPTL3 was determined according to the intensity of the signal after the antibody was added.
(§4) Streptavidin (Sigma, S4762-5MG) was diluted to a concentration of 3 μg/mL with PBS buffer (Shanghai BasalMedia, B320, pH 7.4), added to a 96-well microplate (Corning, CLS3590-100EA) at 50 μL/well, and then incubated in an incubator at 37° C. for 3 h or incubated at 4° C. overnight (16-18 h). After the liquid was discarded, a PBS-diluted 5% skim milk (BD, 232100) blocking solution was added at 250 μL/well, and the mixture was incubated in an incubator at 37° C. for 3 h or incubated at 4° C. overnight (16-18 h) for blocking. […] The mixture was incubated in an incubator at 37° C. for 2 h. After the incubation was finished, the reaction solution in the microplate was discarded. The plate was washed 3 times with PBST, and then a test antibody that was diluted with a sample diluent to different concentrations was added at […]. The mixture was incubated in an incubator at 37° C. for 2 h.

[4] = biological target: T2, rat ANGPTL3(17-455)-His; assay: as above
Method: as §3, §4

Row | Binder | Kd [1] [nM] | koff [1] [s⁻¹] | kon [1] [M⁻¹ s⁻¹] | Kd [2] [nM] | koff [2] [s⁻¹] | kon [2] [M⁻¹ s⁻¹] | EC50 [3] [nM] | EC50 [4] [nM]
1 | P8G (antibody, human IgG4 S228P, kappa, V domains shown, also called anti-ANGPTL3 antibody P8G; P8 (variable regions)) VH: QVQLVQSGAEVKKPGASVKVSCKASGYTFTSYDINWVRQAPGQGLEWVGLINPRDDSTSYAQKFQGRVTMTRDTSTSTMYMELSSLRSEDTAVYFCARDLGSIREVLYYGMDVWGQGTTVTVSS VL: not shown | 0.151 | 0.000333 | 2.2e+06 | 0.25 | 0.000335 | 1.34e+06 | 1.73 | 2.12
2 | P8BG (antibody, human IgG4 S228P, kappa, V domains shown, also called anti-ANGPTL3 antibody P8BG; P8B (variable regions)) VH: QVQLVQSGAEVKKPGASVKVSCKASGYTFTSYDINWVRQAPGQGLEWVGLINPREDSTSYAQKFQGRVTMTRDTSTSTMYMELSSLRSEDTAVYFCARDLGSIREVLYYGMDVWGQGTTVTVSS VL: not shown | 0.045 | 0.000276 | 6.14e+06 | 0.257 | 0.000311 | 1.21e+06 | 0.105 | 0.528
3 | P3G (antibody, human IgG4 S228P, kappa, V domains shown, also called anti-ANGPTL3 antibody P3G; P3 (variable regions)) VH: QVQLVQSGAEVKKPGASVKVSCKSSGYTFTDYYLHWLRQAPGQGPEWMGWISPNSGGTSYAQKFQGRVTMTRDTSISTAYMELSSLRSDDTAVYYCARDIATLGNFFTYGMDVWGQGTTVTVSS VL: DIQLTQSPSSLSASVGDRVTITCRASQGIRNDLGWYQQKPGKAPKLLIYAASSLQSGVPSRFSGSGSGTDFTLTISSLQPEDFATYYCQQSYSSWTFGQGTKVEIKR | 0.285 | 0.000731 | 2.56e+06 | 0.639 | 0.00082 | 1.28e+06 | 1.63 | 1.44
